Data on 19 variants can be found in the RNAGym collection of RNA variant scans (doi:10.1073/pnas.2313332121).

Variants at the floor of the assay were thinned out. Bounds are passed on as bounds.

To fix the notation:
B1: TPR 5TU (parent)
chain: GGAUCUUCUCGAUCUAACAAAAAAGACAAAUCUGCCACAAAGCUUGAGAGCAUCUUCGGAUGCAGAGGCGGCAGCCUUCGGUGGCGCGAUAGCGCCAACGUUCUCAACUAUGACACGCAAAACGCGUGCUCCGUUGAAUGGAGUUUAUCAUG

Variants of B1 are the subject of this data set. The data set is described as follows: polymerase ribozyme fitness, log enrichment relative to wild type (log ratio); higher = more active; in vitro selection for triplet polymerase activity. The procedure, abridged: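 Streptavidin-bead capture of gel-excised extended constructs, followed by RT-PCR, closed a single triplicate in vitro selection round. That round began by annealing PCR-built, transcribed mutant libraries of each subunit of a heterodimeric triplet polymerase ribozyme with a biotinylated primer, the partner subunit and triplets, then incubating them frozen at −7 °C. After Illumina sequencing of inputs and outputs, genotypes needed ≥10 input reads and ≥1 read per output. Fitness is the base-2 logarithm of genotype enrichment over wild-type enrichment, using inverse-variance-weighted replicate averages.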
GGAUCUUCUCGAUCUAACGAAAAAGACAAAUCUGCCACAAUGCUUGAGAGCAUCUUUGGAUGCAGAGGCGGCAGCCUUCGGUGUCGCGAUAGCGCCAACGUUCUCAACUAUGACACGCAAAACGCGUGCUCCGUUGAAUGGAGUUAUUCAAG [A19G A41U C57U G84U U146A A147U U151A]: the “polymerase ribozyme fitness (log ratio)” value was at most -4.2. For GGAUCUUCUCGAUCUAACGAAAAAGACGAAUCUGCCAUAAAGCUUGAGCGCAUCUUCAGAUGCAAAGGCGGCAGCAUUCGGUGGCGCGAUAGGGCCAACGUUCUCAACUAUGACACGCAAAACGCGUGCUCCGUUGAAUGGAGUUUAUCAUG [A19G A28G C38U A49C G58A G65A C76A C93G], the “polymerase ribozyme fitness (log ratio)” value is at most -4.2. With GGAUCUUCUCGAUCUAACGAAAAAGUCAAACCUGCCACAAAGCUUGAGAGCAUCUUCGGAUGCAGAGGCGGCAGCCUUCGGUGGCGCGAUAACGCGAACGUUUUCAACUAUGACACGCAAAACGCGUGCUCCGUUGAAUGGAGUUUAUCAUG [A19G A26U U31C G92A C96G C103U], the “polymerase ribozyme fitness (log ratio)” value is at most -4.2. In the case of GGAUCUUCUCGAUCUAACGAAAUAGACAACUCUGCCACAAAGCUUGAUAGCAUCUCCGGUUGCAGAGGCGGCAGCCUUCGGUGGCGUGAUAGCGCCAACGUUCUCAACUAUGACACGCAAAACGCGUGCUCCGUUGAAUGGAGUUUAUCAUG [A19G A23U A30C G48U U56C A60U C87U], the “polymerase ribozyme fitness (log ratio)” value is at most -4.2. The result for GGAUCUUCUCGAUCUAACCAAAAAGACAAAUCUGCCACAAAGCUUGAGAGCAUCUACGGAUGCAGAGGCGGCAGCCUUCGGUGGCGCGAUAGCGCCAACGUUCACAACUAUGACACGCUAAACGCGUGCUCCGUUGAAUGGAGUUUAUCAUG [A19C U56A U104A A119U] reads -0.197; that for GGAUCUUCUCGAUCUAACGAAAAAGACAAAUCUGCCACAUAGCUUGAGAGCAUCUUCGGAUUCAGAGGCGGCAGCCUUCGGUGGCGCGAUAGCGCCAACGUUCUCAACUAUGACACGCAAUACGCGUGCUCCGUUGAAUGUAGUUUAUCAUG [A19G A40U G62U A121U G141U], -1.46. Take GGAUCUUCUCGAUCUAACGAAAAAGACAAAUCUGCCACAACGCUUGAGAGCAUCUUCGAAUACAGAGGCGGCUGCCUUCGGUGGCGCGAUAGCGCCAACGUUCUCAACUAUGACACGGAAAACGCGUGCUCCGUUGAAUGGAGUUUAUCUUG [A19G A41C G59A G62A A73U C118G A150U]: the “polymerase ribozyme fitness (log ratio)” value was at most -4.2. The same measure for GGAUCUUCUCGAUCUAACGAAAAAGACAAAUCUGCCACAACGCUUGAGAGCAUCUUCGGAUGCAGAGGCGGCAGCCUUCGGUGGCGCGAUAGCGCCAACGUUCUCAACUAUGACACGCAAAACGCGUGCUCCGUUGAAUGGAGUUUAUCAUG [A19G A41C]: -1.52; for GGAUCUUCUCGAUCUAACCAAAAAGACAAAUCUGCCACAAAGCUUGAGAGCAUCUACGGAUGCAGAGGCGGCAGCCUUCGGUGGCGCGAUUGCGCCAACGUUCUCAACUAUGACACGCAAAACGCGUGCUCCGUUGAAUGGAGUUUCUCAUG [A19C U56A A91U A147C]: at most -4.2; for GGAUCUUCUCGAUCUAACGAAAAGGACAAAUCUGCCACAAAGAUUGAGAGCAUCUUCGAAUGCAGAGGCGGCAGCCUUCGGUGGCGCGAUAGCGCCAACGUUCUCAACUAUGACACGCAAAACGCGUGCUCCGUUGAAUGGAGUUUAUCAUG [A19G A24G C43A G59A]: at most -4.2. Take GGAUCUUCUCGAUCUAACGAAAAAGACAAAUCUGCCACAAAGCUUGAGAGCAUCUUCGGAUGCAGAGGCGGCAGCCUUCGGUGGCGCGCUAGCGCCAACGUUCUCAACUAUGACACGCAAAACGCGUGCUCCGGUGAAUGGAGUUUAUCAUG [A19G A89C U134G]: the “polymerase ribozyme fitness (log ratio)” value is -3.68. As to GGAUCUUCUCGAUCUAACCAAAAAGACAAAUCUGCCACAAAGCUUGAGAGCAUCGUCGGAUGCAGAGGCGGCAGCCUUCGGUGGCGCGAUAGCGCAAACGUUCUCAAGUAUGACAGGCCAAACGCGUGCUCCGUUGAAUGGAGUUUAUCAUG [A19C U55G C96A C108G C116G A119C], the “polymerase ribozyme fitness (log ratio)” value is at most -4.2.

As for GGAUCUUCUCGAUCUAACGAAAAAGACAAAUCUGCCACACAGCUUGAGAGCAUCUUCGGAUGCAGAGGCGGCAGCCUUCGGUGGGGCGAUAGCGCCAACGUUCUCAACUAUGACACGCAAAACGCGUGCUCCGUUGAAUGGAGUUUCUCAUG [A19G A40C C85G A147C], the “polymerase ribozyme fitness (log ratio)” value was -3.28. For the variant GGAUCUUCUCGAUCUAACCAAAAAGACAAAUCUGCCACAAAGCUUGAGAGCAUCUUCGGACGCAGAGGCGGCAGCCUUCGGUGGCGCGAUAGCGCCAACGUUCUCAACUAUGACACGCAAAACGCGUGCUCCGUUGAAUGCAGCUUAUAAUG [A19C U61C G141C U144C C149A], the “polymerase ribozyme fitness (log ratio)” value is at most -4.2. With GGAUCUUCUCGAUCUAACGAAAUAGACAAAUCUGCCAUAAAUCUUGAGAGCAUCUUCGGAUGCAGAGACGGCAGCCUUCGGAGGCGCGAUAGCGCCAACGUUCUCAACUAUGACACGCAAAACGCGUGCUCCGUUGAAUGGAGUUUAUCAUG [A19G A23U C38U G42U G68A U82A], the “polymerase ribozyme fitness (log ratio)” value was at most -4.2.

For the variant GGAUCUUCUCGAUCUAACGAAAAAGACAGAUCUGCCACAAAGCUUGAGAGCAUCUUCGGAUGCAGAGGCGGCAGCCUUCGGUGGCGCGAUAACGCCAACGUUCUCAACUAUGACAGGCAAAACGCGUGCUCCGUUGAAUGGAGUUUAUCAUG [A19G A29G G92A C116G], the “polymerase ribozyme fitness (log ratio)” value is -3.8.

On to GGAUCUUCUCGAUCUAACGUAAAAGACAAAUCUGCUACAAAGCUUGAGAGCAUCUUCGGAUGCAGAGGCGGCAGCCUUCGGUGGCGCGAUAGCGCGAACGUUCUCAACUAUGACACGCAAAACGCGUGCUCCGUUGAAUGGAGUUUAUCAUG [A19G A20U C36U C96G], for which the “polymerase ribozyme fitness (log ratio)” value was -3.67. With GGAUCUUCUCGAUCUAACGAAAAAGACAGAUCUGCCAAAAAGCUUGAGAGCAACUUCGGAUGCAGAGGCGGCAGCUUUCGGUGGCUCGAUAGCGCCAAUGUUCUCAACUAUGACACGCAAAACGCGUGCUCCGUUGAAUGGAGUUUAUCAUG [A19G A29G C38A U53A C76U G86U C99U], the “polymerase ribozyme fitness (log ratio)” value is at most -4.2. The result for GGAUCUUCUCGAUCUAACGAAAAAGACAAAUCUGCCACAAAGCUUGAGAGCUACUUCGGAUGCAGAGGCGGCAGCCUUCGGCGGCGGGAUAGCGCCAACGUUCUCAACUAUGACACGCAAAACGCGUGCUCCGUUGAAUGGAGUUUAUCAUG [A19G A52U U53A U82C C87G] reads at most -4.2.
